The series is described as follows: protein stability index of a GFP-peptide fusion (GPS, HEK-293T) (PSI 1-6); higher = more stable.
Where [1] appears, read: treatment: DMSO, c terminus: a fixed tail appended.
The mark [2] stands for this setting: treatment: MLN4924 1 uM, 8 h, c terminus: a fixed tail appended.

± gives the standard deviation.
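Note: 24-mer peptide tiles fused after GFP, lentivirally expressed, FACS-sorted into six equal bins by GFP/DsRed ratio, decoded by Illumina sequencing, PSI is the read-weighted mean bin number.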

Regarding RDLKTQNILLDKHRMVVKIGDFGI [NEK8], the protein stability index under setting [1] turned out to be 2.24 ± 0.18 and the protein stability index under setting [2] is 2.24 ± 0.16.

For REESQHEIKDVLVWTNDQVVHWVQ [PPFIA4], the protein stability index by setting is: under setting [1], 3.4 ± 0.37; under setting [2], 3.97 ± 0.45.

As for RERKKNWGGQEDREPAGRWKEGRP [PBXIP1], the protein stability index is 4.49 ± 0.24 under setting [1] and 4.73 ± 0.13 under setting [2].

Take RGEVLPEEITEESLEESVGKPLYL [INTS3]: the protein stability index amounted to 5.17 ± 0.38 under setting [1] and 5.08 ± 0.35 under setting [2].

In the case of RGLEPGKGRHHRGRGGEPRAYFMS [CHGB], the protein stability index runs as follows: under setting [1], 4.36 ± 0.092; under setting [2], 4.24 ± 0.13.

RGPPPRSGGPPPKRSAPSGPVRSS [RBMX]: the protein stability index came to 4.4 ± 0.2 under setting [1] and 4.56 ± 0.086 under setting [2].

For RGSRGAPPPLGPVVPVLVFPPDLV [MOSPD3], the protein stability index under setting [1] turned out to be 2.67 ± 0.05 and the protein stability index under setting [2] worked out at 2.96 ± 0.22.

As for RKFSRECEDQKQIKKPESFSKQIV [NEUROD6], the protein stability index by setting is: under setting [1], 4.43 ± 0.27; under setting [2], 4.21 ± 0.43.

Consider RKLRKTVNGDGSRENGNNSSDKVR [PHTF1], for which the protein stability index by setting is: under setting [1], 4.96 ± 0.088; under setting [2], 4.99 ± 0.18.

RLFQQSCPTGLVFSNSCKCCTWN [CHIT1]: the protein stability index is, setting by setting: (treatment: DMSO, c terminus: native) 2.37 ± 0.44; (treatment: MLN4924 1 uM, 8 h, c terminus: native) 2.37 ± 0.28.

Regarding RLHLAFKRQVPREQAQAYAERLGV [RAB40A], the protein stability index stood at 2.76 ± 0.16 under setting [1] and 3.12 ± 0.18 under setting [2].

RLHLRRTTEQHVPEVEVQVKRRRT [SNURF]: the protein stability index reads like this: under setting [1], 4.75 ± 0.26; under setting [2], 4.71 ± 0.35.

Sequence RLQSSFWIVDKQHVYIGSAGLDWQ [PLD5] gave a protein stability index under setting [1] of 2.69 ± 0.46 and a protein stability index under setting [2] of 2.26 ± 0.38.

Take RLRHYLGSRYDARRGVSDWDLRMK [DNAAF3]: the protein stability index under setting [1] was determined as 2.19 ± 0.21 and the protein stability index under setting [2] came to 2.33 ± 0.33.

Consider RNLDGTLGYLLDKETLRLHPDIFL [ZER1], for which the protein stability index under setting [1] is 2.13 ± 0.27 and the protein stability index under setting [2] was found to be 2.05 ± 0.17.

Take RPQPWLEKEIEEATKKLGFKHPVI [FUT8]: the protein stability index came out at 3.643 ± 0.035 under setting [1] and 3.22 ± 0.37 under setting [2].

Consider RQFEFYLEEMILPLMVASAQSGER [BTBD10], for which the protein stability index runs as follows: under setting [1], 2.58 ± 0.64; under setting [2], 3.2 ± 0.43.

Take RQQGNPGHRSIYLALKLPDGSYAL [ADAMTS4]: the protein stability index is 2.04 ± 0.23 under setting [1] and 2.2 ± 0.33 under setting [2].

Consider RQQVTNHGRGTEVLLEEPLPLETA [ZNF263], for which the protein stability index by setting is: under setting [1], 5 ± 0.28; under setting [2], 5.04 ± 0.17.

RRPRTAFTQNQIEVLENVFRVNCY [HESX1]: the protein stability index came to 2.39 ± 0.15 under setting [1] and 2.53 ± 0.24 under setting [2].

As for RRQQAKLKELQAIAERLGCTLPQL [KCNAB2], the protein stability index turned out to be 2.99 ± 0.17 under setting [1] and 3.19 ± 0.3 under setting [2].

In the case of RSANGFPYREDEEGAFGEHGSQGT [MAP2], the protein stability index was determined as 5.38 ± 0.25 under setting [1] and 5.41 ± 0.2 under setting [2].

With RSVSDQFYRYKMPRLIAKVEGKGN [EIF5], the protein stability index came to 3.47 ± 0.19 under setting [1] and 3.46 ± 0.21 under setting [2].

As for RVIEVLPRGATAAVLAPDSSNASS [SEPHS2], the protein stability index runs as follows: under setting [1], 4.31 ± 0.19; under setting [2], 4.42 ± 0.18.

Consider RVLHDFGLDGYRGYSLADWVCLAY [SPACA3], for which the protein stability index runs as follows: under setting [1], 2.2 ± 0.34; under setting [2], 2.21 ± 0.18.

Sequence RVTVSRASSSRSVRTTRGKRKRVD [LMNB1] registered a protein stability index under setting [1] of 4.46 ± 0.2 and a protein stability index under setting [2] of 4.34 ± 0.1.

Turning to RWDLSPEQIKTRTEELIVQTKQVY [NLN], the protein stability index is 3.44 ± 0.32 under setting [1] and 3.8 ± 0.088 under setting [2].

Turning to RWLPEKRANPCLSSSNEHAAPAAK [ELOA2], the protein stability index is, setting by setting: under setting [1], 4.25 ± 0.18; under setting [2], 4.08 ± 0.16.

As to SAESMVEYGTCMCLVKGIFYHCSN [SPRY1], the protein stability index by setting is: under setting [1], 2.65 ± 0.42; under setting [2], 2.55 ± 0.34.

Source of the values: the supplement of paper PMC10567573.
